According to patent US20110038869A1 (Genmab, published 2011):
Residue numbers refer to the chain shown, from its start.

T1: biotinylated CD32bECDHis (human, UniProt P31994 43-223, limits assumed, biotinylated (sites not given))
T1 sequence (looked up): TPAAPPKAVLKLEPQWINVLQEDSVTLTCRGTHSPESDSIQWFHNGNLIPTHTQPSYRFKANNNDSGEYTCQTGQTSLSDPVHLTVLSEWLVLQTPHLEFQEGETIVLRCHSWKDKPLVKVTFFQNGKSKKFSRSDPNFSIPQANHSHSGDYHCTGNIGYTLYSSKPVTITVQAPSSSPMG

T2: CD32bECDHis (human, UniProt P31994 43-223, limits assumed)
T2 construct: Produced in HEK-293F cells; also called extracellular domain of CD32b with C-terminal His tag; soluble CD32b
T2 sequence (looked up): T1 sequence (looked up)

B1: Antibody 038 (antibody, human IgG1, V domains shown)
VH: QVQLVESGGGVVQPGRSLRLSCAASGFTFSTYGMHWVRQAPGKGLEWVAVISHDGSDKYYADSVKGRFTISRDNSKNTLYLQMNSLRAEDTAVYYCARDQSIIETFDYWGQGTLVTVSS
VL: EIVLTQSPATLSLSPGERATLSCRASQSVSSYLAWYQQKPGQAPRLLIYDASNRATGIPARFSGSGSGTDFTLTISSLEPEDFAVYYCQQRSNWGFTFGPGTKVDIKR
notes: Human antibody; also called HuMab 038
B2: Antibody 024 (antibody, V domains shown)
VH: QVQLVQSGAEVKKPGASVKVSCKASGYTFTSYGLSWVRQAPGQGLEWMGWISPYNGNTHYAQKLQGRVTMTTDTSTSTAYMDLRSLRSDDTAVYYCARDSAAHGMDVWGQGTTVTVSS
VL: DIQMTQSPSSLSASVGDRVTITCRASQGISSWLAWYQQKPEKAPKSLIYAASSLQSGVPSRFSGSRSGTDFTLTISSLQPEDFATYYCQQYNSYPYTFGQGTKLEIKR
notes: also called HuMab 024
B3: Antibody 026 (antibody, V domains shown)
VH: B2 VH with P53A, H59N
VL: B2 VL
notes: Human antibody; also called HuMab 026
B4: Antibody 022 (antibody, V domains shown)
VH: B2 VH with Y80D, D99A
VL: B2 VL
notes: also called HuMab 022
B5: Antibody 028 (antibody, V domains shown)
VH: B2 VH with L4V, A24T, L34I, P53A, H59K, V68L, S77T, D82E, T115S
VL: B2 VL
notes: List 1 gives no VL for antibody 028; The VL is therefore uncertain; also called HuMab 028
B6: Antibody 020 (antibody, V domains shown)
VH: B2 VH with A9G, A24T, L34I, P53A, H59K, V68L, S77T, D82E
VL: B2 VL with S63R, R66G
notes: also called HuMab 020

target: T1, biotinylated CD32bECDHis; experiment: competition ELISA, competitor 016
Protocol: (§1) ELISA wells were coated overnight at 4° C. with anti-CD32b HuMabs serially diluted in PBS. The ELISA wells were washed with PBS, blocked for one hour at room temperature with 2% (v/v) chicken serum (Gibco, Paisley, Scotland) in PBS and washed again with PBS. Subsequently, the immobilized antibodies were incubated with biotinylated CD32bECDHis serially diluted in PBSTC. After washing with PBS/Tween, bound biotinylated CD32bECDHis was incubated with Streptavidin-poly-HRP (Sanquin, Amsterdam, The Netherlands) for 1 hr at RT an the reaction was developed as described supra.
(§2) To this end, ELISA wells coated with anti-CD32b HuMabs were incubated in the presence of an excess of CD32b-specific antibody and the predetermined concentration of biotinylated CD32bECDHis in fluid phase. The reaction was developed as described.

% residual binding [%]	Binder
105	B1
101	B2
104	B3
102	B4
109	B5
105	B6

target: T2, CD32bECDHis; experiment: TR-FRET competition against HuMab-KLH-AlexaFluor 647
From the text: To study the interaction of anti-CD32b HuMabs with CD32b and CD32a in more detail TR-FRET technology was applied. To this end, CD32bECDHis and CD32aECDHis were labeled with a fluorescent donor molecule directed against the histidine tag (Anti-6×His Europium3+, PerkinElmer, Boston Mass.).
Briefly, all dilutions were made in 0.5× Lance detection buffer (PerkinElmer, Boston Mass.) supplemented with 0.2% BSA (obtained via dilution of 7.5% BSA Stabilizer solution, cat: CR84-100, PerkinElmer) and 0.03% (v/v) Tween-20 (Riedel de Haen, Seelze, Germany). CD32bECDHis and CD32aECDHis were diluted to 0.5 μg/ml. […] Anti-6×His Europium3+ (PerkinElmer, Boston Mass.) was diluted to 0.15 μg/ml. A 4-fold serial dilution of the tested HuMab antibody was made in a 96 wells non-binding plate (cat. 650261, Greiner Bio-one, Frickenhausen, Germany), ranging from 10 μg/ml-0.04 ng/ml. […] After overnight incubation at 4° C. in the dark, fluorescence was measured using an EnVision 2101 Multilabel reader (PerkinElmer, Boston, Mass.) applying the following settings; Lance/Delfia dual mirror, emission filter 615-665 nm, excitation filter 320 nm, delay time 60 μs, window 100 μs, 100 flashes, 2000 μs per cycle and bidirectional row-by-row reading. Binding curves were analyzed using non-linear regression (sigmoidal dose-response with variable slope) using GraphPad Prism V4.03 software (GraphPad Software, San Diego, Calif., USA).

IC50 [nM]	% of maximal Fab-mediated inhibition [%]	Binder
0.37		B1
0.45	~70	B2
0.3	~70	B3
0.44	~70	B4
0.35	~70	B5
0.35	~70	B6

target: T2, CD32bECDHis; experiment: ELISA on coated CD32bECDHis
Protocol: The specificity of the obtained anti-CD32b HuMabs was evaluated by ELISA. ELISA plates (Microlon; Greiner Bio-One) were coated overnight at 4° C. with 2 μg/ml of CD32aECDHis and CD32bECDHis in PBS, pH 7.4. Coated ELISA plates were washed with PBS, blocked for one hour at room temperature with 2% (v/v) chicken serum (Gibco, Paisley, Scotland) in PBS and washed again with PBS. Subsequently, HuMabs, serially diluted in PBSTC (PBS supplemented with 2% (v/v) chicken serum and 0.05% (v/v) Tween-20), were incubated for 1 hr at RT under shaking conditions (300 rpm). Bound HuMabs were detected using HRP-conjugated goat-anti-human IgG antibodies (Jackson ImmunoResearch Europe) diluted 1:10,000 in PBSTC, which were incubated for 1 hr at RT under shaking conditions (300 rpm). […] Binding curves were analyzed using non-linear regression (sigmoidal dose-response with variable slope) using GraphPad Prism V4.03 software.

EC50 [nM]	Binder
0.62	B1
0.75	B2
0.51	B3
0.75	B4
0.48	B5
0.49	B6

target: T1, biotinylated CD32bECDHis; experiment: competition ELISA, competitor 053
Protocol: as §1, §2

% residual binding [%]	Binder
333	B1
69	B2
29	B3
64	B4
51	B5
42	B6

target: T1, biotinylated CD32bECDHis; experiment: competition ELISA, competitor 024
Protocol: as §1, §2

% residual binding [%]	Binder
351	B1
15	B2
1	B3
13	B4
7	B5
4	B6

target: T1, biotinylated CD32bECDHis; experiment: competition ELISA, competitor 028
Protocol: as §1, §2

% residual binding [%]	Binder
317	B1
34	B2
3	B3
27	B4
15	B5
13	B6

target: T1, biotinylated CD32bECDHis; experiment: competition ELISA, competitor 020
Protocol: as §1, §2

% residual binding [%]	Binder
310	B1
43	B2
4	B3
35	B4
24	B5
20	B6

target: T1, biotinylated CD32bECDHis; experiment: competition ELISA, competitor 2B6
Protocol: as §1, §2

% residual binding [%]	Binder
5	B1
98	B2
146	B3
96	B4
125	B5
126	B6

target: T1, biotinylated CD32bECDHis; experiment: competition ELISA, competitor 063
Protocol: as §1, §2

% residual binding [%]	Binder
283	B1
68	B2
27	B3
63	B4
45	B5
42	B6

target: T1, biotinylated CD32bECDHis; experiment: competition ELISA, competitor 022
Protocol: as §1, §2

% residual binding [%]	Binder
350	B1
17	B2
1	B3
14	B4
6	B5
6	B6

target: T1, biotinylated CD32bECDHis; experiment: competition ELISA, competitor 034
Protocol: as §1, §2

% residual binding [%]	Binder
354	B1
6	B2
0	B3
7	B4
2	B5
1	B6

target: T1, biotinylated CD32bECDHis; experiment: competition ELISA, competitor 038
Protocol: as §1, §2

% residual binding [%]	Binder
17	B1
103	B2
127	B3
115	B4
121	B5
120	B6

target: T1, biotinylated CD32bECDHis; experiment: competition ELISA, competitor 026
Protocol: as §1, §2

% residual binding [%]	Binder
308	B1
56	B2
4	B3
42	B4
32	B5
28	B6
